From the DeepSol protein solubility set

Test: soluble on expression in E. coli; label from the status in PepcDB or PDB records

| Sequence | soluble on expression in E. coli |
| --- | --- |
| MTKEEMRNAILDIFQSNPQSVMNYKQVSHLMGVEAAPQKLMVNSLMEDMAVDDILHEIERGRYRYNALGLIVIGTFERRFNGRNSFIPEGGGTPIFIAERNSAHAMDGDKVKVQLFAKRRGRAPEAAVIEIIEQKQATFVGKIQINRDFAFLVTEDRTLANDIFIPKDNLGNAKNGDKVIVRILEWPEQSKNPIGEVQAVLGPAGDNDAEMNAILAEFGLPYVYPQEVEEAADRLDGKITEEELARREDFRSILTFTIDPKDAKDFDDAISFRPLEDDCYEVGVHIADVSHYVTEGGIIDQEAYNRATSIYLVDRTIPMLPERLCNDLCSLRPDEEKYAYSCIFRMNDEAKVLDYRICHSVIKSDRRFAYEEAQAVIETGEGDCKEAILKLNELAQRLRKERFQNGAIAFERKEVRFEIDEKGRPLGVIVKESKEANKLIEEFMLLANRTVARHIGEETQGKRAKTFVYRIHDLPDPDKLETLSDFIRRFGYKLRTTGSNVEVSKSINSLLDNIQNKPEENLISTVAIRSMAKAIYSTDNIGHYGLAFDFYTHFTSPIRRYPDLMVHRLLTKYLSGGSSVDKNDYEEKCKHSSAMEQLAASAERASIKYKQVEFMSEHLGKVFDGVISGVTEWGLYVELKENMCEGLIPIRCLDDDYYEYDDKNFCLIGRRYRHRYSLGDAITVRVAQANLDRKQLDFEPVS | not soluble |
| MSRIIMLIPTGTSVGLTSVSLGVIRAMERKGVRLSVFKPIAQPRTGGDAPDQTTTIVRANSSTTTAAEPLKMSYVEGLLSSNQKDVLMEEIVANYHANTKDAEVVLVEGLVPTRKHQFAQSLNYEIAKTLNAEIVFVMSQGTDTPEQLKERIELTRNSFGGAKNTNITGVIVNKLNAPVDEQGRTRPDLSEIFDDSSKAKVNNVDPAKLQESSPLPVLGAVPWSFDLIATRAIDMARHLNATIINEGDINTRRVKSVTFCARSIPHMLEHFRAGSLLVTSADRPDVLVAACLAAMNGVEIGALLLTGGYEMDARISKLCERAFATGLPVFMVNTNTWQTSLSLQSFNLEVPVDDHERIEKVQEYVANYINADWIESLTATSERSRRLSPPAFRYQLTELARKAGKRIVLPEGDEPRTVKAAAICAERGIATCVLLGNPAEINRVAASQGVELGAGIEIVDPEVVRESYVGRLVELRKNKGMTETVAREQLEDNVVLGTLMLEQDEVDGLVSGAVHTTANTIRPPLQLIKTAPGSSLVSSVFFMLLPEQVYVYGDCAINPDPTAEQLAEIAIQSADSAAAFGIEPRVAMLSYSTGTSGAGSDVEKVREATRLAQEKRPDLMIDGPLQYDAAVMADVAKSKAPNSPVAGRATVFIFPDLNTGNTTYKAVQRSADLISIGPMLQGMRKPVNDLSRGALVDDIVYTIALTAIQSAQQQ | soluble |
| SISKEEILKPIWYAFTALDLDRNGKVSKSQLKVLSHNLCTILKIPHNTSALEEHFKDDDEGPVSTQGYMPYLNTFILSKIQPNFDFVELNKMCWTLSAPKHINTMNLLMSEKDAFRVWCIFNFLSEDKYPLTIVTEELEYFLRKLLTAMGCSWNEGRFEDYKMHLNAKTWKHKVSKHEGLLKLVQPGGKTPSKMTNWGQAAFTESELNELEKMWQVNKNRSEEE | soluble |
| MATFNSYTVDEIREIVDPDHPETLLEQAKGWAEMADLLSEYGVLLEQRLELVEDSWTGDAARLYFDEVKRMQEYIEESAERATTNAGLWFLIGTLAGIAKHDVSYIHKLWKDLDNVTDAVGLGFILEAIGVDKAVEDFKRMPYDVASRQIMEATATAAEESYSQMRDFEEFKPPPDVDGSGPTLQSVSAVAPPGGAVSLPSTTIVSNAAMPPLGPVAMRPVVPGVIGSRPGMTSMPRPMMGPGHTVRPVIGQRTGESQQTKTPGRLIGRYGVVSATPDVDMRDPKASRIHYGGDDVNRGVIKNNDPQRAAEEARFKLEEEVLRLRERAFAHRADDLTPAHTQHVLPGIVGDDSGWDRKTHDPGPVAFEMRRRPDRDDDAWTVI | not soluble |
| MPGQQATKHESLLDQLSLKGKVVVVTGASGPKGMGIEAARGCAEMGAAVAITYASRAQGAEENVKELEKTYGIKAKAYKCQVDSYESCEKLVKDVVADFGQIDAFIANAGATADSGILDGSVEAWNHVVQVDLNGTFHCAKAVGHHFKERGTGSLVITASMSGHIANFPQEQTSYNVAKAGCIHMARSLANEWRDFARVNSISPGYIDTGLSDFVPKETQQLWHSMIPMGRDGLAKELKGAYVYFASDASTYTTGADLLIDGGYTTR | soluble |
| MYIQVLGSAAGGGFPQWNCNCVNCKGYRDGTLKATARTQSSIALSDDGVHWILCNASPDIRAQLQAFAPMQPARALRDTGINAIVLLDSQIDHTTGLLSLREGCPHQVWCTDMVHQDLTTGFPLFNMLSHWNGGLQWNRIELEGSFVIDACPNLKFTPFPLRSAAPPYSPHRFDPHPGDNLGLMVEDTRTGGKLFYAPGLGQVDEKLLAMMHGADCLLVDGTLWEDDEMQRRGVGTRTGREMGHLAQNGPGGMLEVLDGFPRQRKVLIHINNTNPILDENSPERAEVLRRGVEVAFDGMSIELLEHHHHHH | soluble |
| MSLSDGYHRSPSSRVPRIEGCQHTADASPSDATGPRRHAMTAHNREPVDYLAGEMPLHRYCAHHAAQTPERIALLWYGRTICWRELDQLSTRLAVQFQRLGVARGDRVALFLQNCPQAILAHLAAAKLGAIAVPCLPLSRQHELRDQLTDCGAKILIAAADLMPIVDAARPGTAIATVITTRYADLQPAQPACRKALAVPPELIAADAASAPAGRGQAGSGQFDLMQLLAEPVDVAERNAVAAIQVDLDEVALMIYTSGTTGRPKGAMLTHRNALYKTAVTVQMSGIHAADVLLAAAPLSHIAGMLMGMNLMLYAGAPTILLFRFDPLAVLQAIDRYCVTWWYSMTPMNLAVMAHPEAGQYRMASLVNNPCTSFGAPLTEAIADRWRAFAGPKCRIYEAAYGLSETHTCDTVTPPDAPRWGWHGKIVPQTEVRIVDPRTGTALPPGRSGEITIRSPGVFRGYWRRDEATRAALQDGFLRTGDIGQVSPDGYLQWQGRLKELIKVSGYSVFPEDVEALLSRHPAIRQVAVTPLPDPDKGEVVCAHVVRMSGTALTEAELIAWSRENMAPYKVPRRVRFHDALPATVTGKILRRLLREEAAVAEGHHHHHH | soluble |
| MPDYDLITILGPTASGKTPFAAALAHELNTEIISADSRQIYRGMDLGTGKDLADYTVDGHPIPYHLIDIADPGYKYNVFEYQRDFLISYESIKQKGCLPVLCGGTGMYLESVLKGYKLMPVPENPELRARLANHSLEELTEILKQYKTLHNSTDVDTVKRAIRAIEIEEYYAVHPVPEREFPKLNSLIIGVDIDRELRREKITRRLKQRLDEGMVDEVRRLTEQGISPDDLIYYGLEYKFLTLYVIGKLTYEEMFTELETAIHQFAKRQMTWFRGMERRGFTIHWVSAELPMEEKIAFVIEKLRGNLEHHHHHH | soluble |
| MFPSSEVEAKRTTLNLELESNTDRLLQEKDDLLPQSVTNSSDEGTPFAQVEGASDDNTAEQDSDKPGASVADADTKPVDPEWKTITVASGDTLSTVFTKAGLSTSAMHDMLTSSKDAKRFTHLKVGQEVKLKLDPKGELQALRVKQSELETIGLDKTDKGYSFKREKAQIDLHTAYAHGRITSSLFVAGRNAGLPYNLVTSLSNIFGYDIDFALDLREGDEFDVIYEQHKVNGKQVATGNILAARFVNRGKTYTAVRYTNKQGNTSYYRADGSSMRKAFIRTPVDFARISSRFSLGRRHPILNKIRAHKGVDYAAPIGTPIKATGDGKILEAGRKGGYGNAVVIQHGQRYRTIYGHMSRFAKGIRAGTSVKQGQIIGYVGMTGLATGPHLHYEFQINGRHVDPLSAKLPMADPLGGADRKRFMAQTQPMIARMDQEKKTLLALNKQR | not soluble |
| EHLRLDNDQREKYIQEARNMGSTIRQPKLSNLSPSVIAQTNWKFVEGLLKECRNKTKRMLVEKMGREAVELGHGEVNITGVEENTLIASLCDLLERIWSHGLQVKQGKSALWSHLLHYQENRQRKLTSGSLSTSGILLDSERRKSDASAVMSPLRISLIQDMRHIQNIGEIKTDVGKARAWVRLSMEKKLLSRHLKQLLSDHELTKKLYKRYAFLRCDDEKEQFLYHLLSFNAVDYFCFTNVFTTILIPYHILIVPSKKLGGSMFTANPWICISGELGETQILQIPRNVLEMTFECQNLGKLTTVQIGHDNSGLYAKWLVECVMVRNEVTGHTYKFPCGRWLGKGMDDGSLERVLVGELLTSLPEVDERPCRTPPLQQSPSVIR | soluble |
| MAHHHHHHSLMLKKNDIIQVAISDLSHEGAGVAKHDGFVFFVDNALPEEVIDMRVLKVNKNSGFGKVEAYHYLSSARNADVNLTYLRTGIADLGHLTYEDQLTFKKKQVQDSLYKIAGISDVTVESTIGMTEPLAYRNKAQVPVRRVNGQLETGFFRKHSHDLIPISDYYIQDKEIDRLINFTRDLLRRFDIKPYDETEQTGLLRNIVVRRGHYSGEMMLVLVTTRPKVFRVDQVIEKIVEAFPAVVSIIQNINDKNTNAIFGKDFKTLYGKDTITDSMLGNNYAISAQSFYQVNTVMAEKLYQTAIAFSDLSKDDIVIDAYSGIGTIGLSFAKTVKAVYGVEVIEAAVRDAQQNAALNGITNAYFVADTAEHAMATWAKDGIKPSVILVDPPRKGLTESFIQASVAMGPQKITYVSCNPATMARDIKRYQELGYKLAKVQPVDLFPQTHHVECVVLLIKEEG | not soluble |
| SIAYIEPYFLENDAEAASAATAAGKSTDGVSESLNIQGEILCGGAAADIAGRDFGGMNCVKPLAVVRPVGPEDIAGAVKAALRSDKLTVAARGNGHSINGQAMAEGGLVVDMSTTAENHFEVGYLSGGDATAFVDVSGGALWEDVLKRCVSEYGLAPRSWTDYLGLTVGGTLSNAGVSGQAFRYGPQTSNVTELDVVTGNGDVVTCSEIENSELFFSVLGGLGQFGIITRARVLLQPAPDMVRWIRVVYTEFDEFTQDAEWLVSQKNESSFDYVEGFVFVNGADPVNGWPTVPLHPDHEFDPTRLPQSCGSVLYCLELGLHYRDSDSNSTIDKRVERLIGRLRFNEGLRFEVDLPYVDFLLRVKRSEEIAKENGTWETPHPWLNLFVSKRDIGDFNRTVFKELVKNGVNGPMLVYPLLRSRWDDRTSVVIPEEGEIFYIVALLRFVPPCAKVSSVEKMVAQNQEIVHWCVKNGIDYKLYLPHYKSQEEWIRHFGNRWSRFVDRKAMFDPMAILSPGQKIFNRSL | soluble |
| MSSSSFTTERPFTPELLSPAGTLKNMRYAFAYGADAVYAGQPRYSLRVRNNEFNHENLALGIQEAHALGKRFYVVVNIAPHNSKLKTFLRDLKPVIEMGPDALIMSDPGLIMMVRDAFPQMDIHLSVQANAVNWATVKFWQQMGLTRVILSRELSLEEIAEIRAQVPEMELEVFVHGALCMAYSGRCLLSGYINKRDPNQGTCTNACRWEYNVQEGKEDDVGNIVHIHQPIAVKNVEPTLGIGAPTDKVFVIEEAQRPGEYMTASEDEHGTYIMNSKDLRAIQHVERLTQLGVHSLKIEGRTKSFYYCARTAQVYRRAIDDAVAGKPFDPSLLTTLEGLAHRGYTEGFLRRHVHEEQQTYEYGYSVSERQQFVGEFTGVRREGLAEVLVKNKFSRGDSVELMTPKGNIQFTLESMQDKKGQPADIAPGNGHIMYLPIPEEIDVEYGLLIRNLNGTNSRNPHEKA | not soluble |
| MIRVLLADDHALFRQGLKSLLEAEGDFRVVGEAKDGWEAMRHALETKPDVILMDIQMPGLDGVQATQAILKEWPQAKVIMLTMYRQDAYVFEAVKAGARGYLLKDVDARELVDAIRRVHAGEVLLDAELAGHIIQDFRAKKEASQPLHAELSEREVQILRLVAQGYTNQEIAAELQLSEKTVRNRLSEIFQKLHLNNRTQAALYAIREGLARPEE | soluble |
